# Reference: patent US20070117966A1
# Target: purified αvβ3 integrin (human) (UniProt P06756)
# Experiment: competition ELISA on αvβ3 coated wells; competitor: biotinylated FNfn10-3JCLI4 at 800 pM; no inhibition at the highest concentration
substance,measurement,value
"wild-type FNfn10 (FNfn10-WT), purified protein (from UniProt P02751 1538-1631)",IC50,> 0.08 µM
